Data reported in the domain aggregation screens of Martell et al. (2025).

Assay: soluble fraction after stress (log2 fold change); higher = more stays soluble; pooled small domains, quantitative proteomics
Conditions: stress: 50 degC
How it was run: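 Custom libraries of small protein domains were pooled and measured in a high-throughput format, with quantitative proteomics as the read-out. Each library was stressed at 50°C. The value is the log2 fold change in the amount of each protein that stays soluble after stress, used as a measure of aggregation propensity; higher values mean more of the protein stays soluble.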

Sequence	soluble fraction (log2)
HMGKKYVPGMAVKLSAVPLYAASTSKVPSTHVTGTYYLWDDEVVRGRLRITNLKSRVGISGQVTGWIDKDR	-1.23
HMKEETEMVTIPDVTGKPLTEAANLLREAKLDYLAESTGTSVTKQMPLPGAEVMVNTTVLLYTG	0.156
HMNVPFGYTIKDGLLVEQPDEKAILDNILTWKKGQMTVAEIAKKTGMETWKIYGILNYWRNK	-0.875
HMKRFSPPSIEEVDSYIREKGYTVDAERFVNFYESKGWYVGKNKMKNWRAAVATWQKEDNKRN	0.199
HMVSTSVTVTGDLNVRADSRADSDLVGALIPGQTVTRLAVLDNGWSKIRFDDGAGTVVEGYVLSEYLQADG	0.0817
HMPPQPATQNTKAQVMQLAREKELMAGEGRGANVEALEKFANEHGISLRGMTEEQAEQLVKLLMEYTP	-0.258
HMSELPLTQKVAIVMVALGEEASGEVMKHLSDYEIEEITQAIAGLKNISVELMDQILEEYEQHLIAG	-0.459
HMSSKSDQLYLQLRRRISAMKDGEPFPTVRQLMTEYQVSQSTVTPAINQLKEKGLIEAYVGRGSFVSKK	-0.615
HMRPQYVDLFTKLSAEEAGAITSKLKELKVEYQLADNGSTIKVPQKDAAEIRLELANEGLPA	0.141
HMQVEYTRGELLQDLKEENVLYATITPSRETPTGEVDFVFKDKSIKTLYVTDVSEIEGLLMDYGIDPEVKK	-0.0511
HMEQKISVPALVGRDIEEILADTEVTGNFTIKEADKRVASNRPVGEVLEQDPGTGESAVKGTIITVTVSAG	0.0124
HMKNNLKGSPIIIAGGYGVGSKENFNLLFDLAKVLNAEVGASRAAVDAGFVEHDRQIGQTGVTVRP	0.0735
HMGILPDDVKLNIKEAKKIGFPIMLKAIHGGGGRGMMIVQSEDEFADAMKITKTEAKNSFGNGDLYFEKFF	0.238
HMVSDSAELSAFVADVIKENAQAVADYKGGKTNVFGWLMGQIIKKSGGKATPAAAAALLKAELEK	0.0521
HMQISDSGELEKIVLQVIEENPKPAEQVRSGNEKAIGALVGGVMKATQGRADGGEVNRLLRQHLGL	0.172
HMGVRLAPEVDRIPYGQMHPNLKKVKDLYEASYKAYVQALSSGNQALAKEKLEEFQSTKARYQRALSAYT	0.189
HMGATFITSSKDNAINIRQAAGTDSKVIETIKNGHILESSEKSGEWYKVTYYDSDIKKTFTGYIHNSQLK	0.159
HMAAYRLIPLGNSNKDFETYQEAIQYMRDKLDESSKAFEEGKQNWVYSGRVYGVPWSDGRTTFTVDLVPKV	0.164
HMGTRYVEFVIPGTGNHEVRIVSSNGSRQNVEVAGTYPGGARLRTKVDNGVRRVSFYVDNRLVEEKQ	0.0416
HMHANAALTPRQRLRLAQKIVDEEWTVAAAADYFRVSWPTAAKWARRYVELGEAGMADRSSRP	-2.1
HMFNISEKLKKYRNALGLTQTEVAEKIEITKPTYASYEKGKDISIGTLKKLADLFEVSFESFFSE	-0.168
HMKSISMSKLRHLLQLYVQGRSKKLISEQTGIARNTLKKYIKEFSEAGLSLEALLALSDKELEDLFVK	-1.01
HMILKNVPSNLVNQRLDKVATVLFQTYSRTQIKKWILEGRLLVNGEISNPKDLVNENDEIEINPI	-1.6
HMTITDDETHKVLEEGASRMSEGLTFRDLVDLDRLHLTARGVIQKVLNENRIDADVDTIANMAQKLVARVS	-0.0539
HMQFHQDNYALEFIRDLQPVDGAIILSRFKQFDLVELEKAKKIKFSDEHMAWTLYDYDIKKIN	-2.3
HMIKSEERIQNIKEYILEFQFTYHRTPTMAQIAEAVGTVKSNVYKYLSEMEERGILTRNKREIEINDTIQ	-0.819

Sequence	soluble fraction (log2)
HMANIAVTIPTGSSGDRIADILLQAGLIKDKQDFNQAVIAAGAEGKLRAGYFVIPSNATPAEIISILT	-0.695
HMPAVVEFDVKPRGEVLVDGIWYGRIPELREVELRPGRHHLRVQNAGHPSLDLVVTLEPGERMTVTHTFA	-0.102
HMLTGISALKPTEAFPDEIFYEIFEIEDNIERTQYIESLRNTARQLKRVTEFNNLYKSFVLDYAQRQKQ	-1.51
HMAGTPAVVKWFNPTKGFGFVTPREAGSDALLHASVLAKQGKRWLQEGTVVEVVLEEGPKGLVVSEVLTIE	-0.457
HMRDADRYAFMQENVEDFAKDMRRKHMTYDVLYEEYIRRTDNPYGYTQFKAIVQEYEKNHDYK	-0.141
HMKTPIEFGSVYNDPVRYVIGMSIKSAESINQAIYDMMKIFGDENNMNKFDSLPDEQAVLDMVNSF	0.0157
HMGVSLKEIQENLSLIDDAAQKLASGQGTVDDAVGMGNAGKDIYDNIEGYVSSPKEFINGVLSSV	-0.104
HMLSKGDRVSWDTPQGRTQGEVVEKKTKDFEHDGQKFTASDDDPAFIVKSEKSGAEAAHKGSALNK	0.0884
HMAPLEPLTDRETEMLVRLANGASNKVMARESFVSENTIKFHLKNIYAKLGVTSRLQAIAAARNQGLI	-0.891
HMNPKTELMVYLKKRDEWVASQILSDVLQVSTRTIRKFVKEINMDYQTENVILSSSKGYKLNQNLLSSL	-1.2
HMSSQLETTFATLIGKRVSIRLHDPEGGFRDILGHLESPYSLRNRHGNLIEFAHDQIFLWREVI	-0.951
HMAEAIVMSTAAPVKSSPDPQSKDIFVLHEGTKVAVGDSLGDWREIRIADGNKGWVLVSAIEMI	0.0979
HMSNWTILIIQGSAHLIDLDSKITEIDGFGSFPTKILQDYNLNEEFEIFDTNVKMVNSVQSDLQSN	-2.56
HMRISLKAQVYEYLKQAIINGDLKVGEIYSEQYFADKLSISRTPVREAILQLQHENMVEVKANRGIIVK	-0.472
HMKAILHQESRSGFANATVIGGLDKFLDTNWNQLSKYIKKIETPYSDRSLEDRKIWISTILGILSTEI	0.45
HMADASVTAYFKIAEDRLQGRLPDTFSEASLKARYQLTPAQLTAVLTRIAQEGWAERKPGYGWAFSSML	-1.4
HMTLGEHILQYRTARGWSQEDLANALEVSRQSVSKWETDASTPELDKIVRLSEIFQVSIDELVTGKA	0.108
HMNVDSLIGKKARVLEDIDNLNAKGQVSIDGMEWTARSEDGSEIKKDALVEVVAIEGVKAIVKQ	0.0709
HMDAYMIGHNIAKWRKEKGMTQDQLAEHLSVSGQAVSKWENGASLPDIAILPKLAEIFDVTMDQLFSR	0.144
HMSQIANLLLSKNIKVNNQNIIYYETVLKYLPNNEKKEFFINAMKNNIYFTEEEIKNFGNIFN	-1.66
HMEVNLEPLIALLRKHRDLDLSGYSKSTLGRRITYFMGLNKISSIDELGRRLAEDDLLFQEFLDKLT	-0.0655
HMVAGGTVSRKLSIETGLPKRKSLIGSWLDQNSVWHNIISVRHRNGYGDGVNYGFYLRSLLTSEGNLAW	-0.114
HMSDKLTLPVQINGVFRYTIEINPSMQKDEIIDLVKNEERTAKYKQDKEIKNVIVVPGKIVNIII	0.0263
HMKDLIGEAKAKELALGHAKLSASDVTFIHVELDWENGRRVYDVEFYSGAKEYDYEIDAKTGEIVSFDY	-1.27
HMSKQVDVVIYILENTKAADNTYIGTYRKTADGAGVSLDTATKVMRKLQENNFIKKVQNGVYQISPLIMM	-0.889
HMTGREIDQLFSVVNDLKAKGVGMVFISHHLDEIARIADSVSVLRDGGFVAEVPASTPEKKLVTLMVGRDI	-0.208

Sequence	soluble fraction (log2)
HMVDLLDETLIEFYAFANNLIKDLETNSEKYGGMSQFEKELIFNEQITQYQRKLKIDLQDEVG	-1.54
HMVKGIVPNLIGKTQDEAKQMAEEYGFSIGTVSEKASDKPKGTVIEQSPKAGAKASGVTSINIVVSDGS	-0.0342
HMSEYEYALHEFGITKKQSQRIFDRLSIADLEERINAIQTTLKQRSDIDNPAAYAWTVLNAE	-0.207
HMEIGNVIAKLRVSNGLNQREFAKKLEVSNGAVAMWETNKRQPDLEMIKKISNLFDVPTDYILGAGTFQ	-0.458
HMSVDDVALRLEFGPSDAEALAFVHRHGAILSETTDRDTGVVSVHVRLSEADAGRFNQRYGV	-0.183
HMTETPDDLLAALKKNKKAQATFDAFSPSNKKEYILWITEAKTEATRTKRLETAIEWMSEGKARNW	-0.222
HMVIDETVLIDLFERLAEDDRPQRVAFRYILALVLLRKRTLQLIGREDEDDGEIWLLRFKGTDGEPIRV	-0.297
HMLKGTVKWFNESKGFGFIEQEEGKDVFVHYSAITGSGFKTLNEGDKVQFEIVDGPKGPAAANVSK	-0.0666
HMRHLSVPSQDTQQVLQRLKVELALPEGARVRSDPSDPGRRLIPFTESVPQEMIDQYPVVSINI	0.0489
HMRTSPGADYEKTYYTIQSGDNLGAIAEKMGVSVADLKDWNDISGTKIYAGKKLVIYVKKGST	0.183
HMISKAQLFSEEELTELYRATGYQLENDPEIHREQFEALQAVRAKIEYAVPDVQEKLEQEQNLGQQ	0.295
HMLPLHFIEIVSLKKIDTLTKRKELINYAFSKNEKTYIYKLAFKKKSELDNLYKEINLFNEIINIDIRHS	-0.615
HMTETEIVIGGKYRHYKGGEYELVSIVKHSETLEELVIYKSLSTGEMWARPKSLFVGLVDGQPRYTL	-1.85
HMNPYLWQRVRLLFSNVGVINNSATVDLVFSAPKGVLTEDLANNFSAALVKKGKEELGLDDIKITISVIPN	-2.94
HMIYYTEEELVKRYIDFSNYLGKKEGASDVDFKKYAVEFGIPSRDHYNRKFITLFNLKIKAGYKPIRH	-0.763
HMDRSAQVLFLEHARSRLPQRIQWAEELAELLSIGIDSAYRRIRGETALTFNEAVSVSRKYDISLDYLFK	-3.62
HMDSVSAVRTTHLNSYVLLLEKDGMAAATISRYIASMKGFFEYLFREHMIEEDPAFTLKPPKV	-0.0799
HMRNISLSLRWHSGEWTADRLKSEVLALPGAMDMTVFEPQSQAYLRVEQGFDTKLLPAGIDVH	-0.927
HMRSVLSDEIYLLIRKMIFNYEILPGAKVNIDALAKKLDVSQTPVREALSRLESDGLIVKEPLKGFRATD	-0.875
HMTDQYEVQNLVGLTVREAQEKEGVKDIFEVREVGSEFSAEYDAGLIVRQSPDAGEQRKGEGLVIEVWVSA	0.0425
HMEDPLGDLIGRIAAATGRPVQDIVAEVHRVVTDHFDGNLRVEAAAVILARKYGVAFEDKLSALQRSV	0.00767
HMKEAITVIGGKNNITFDASAQAEIGIYSMDGVQIQKKTISDNERIDLPAGMYVVTVKTGQANVSKVVVV	0.00681
HMGSATAPDLKGLTYEQAQTKAEDAGYNIEKGEDVYDNDVEKGKVASQDPEAGAEAKEGSVITVNISK	-0.0349
HMLDQGTQSRYQIMDGVRALITGDWSSHGAGLVRELSQEVARTSGLTATSERTFFVPFSALS	0.0364
